Source: publication PMC314469, “Protein Interaction Networks by Proteome Peptide Scanning” (PLoS Biology, 2004)

T1: Rvs167 SH3 (RV167_YEAST), P39743
T1 chain: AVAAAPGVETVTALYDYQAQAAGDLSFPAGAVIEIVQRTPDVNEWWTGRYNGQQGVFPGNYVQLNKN

T2: Boi2 SH3 (BOI2_YEAST), P39969
T2 chain: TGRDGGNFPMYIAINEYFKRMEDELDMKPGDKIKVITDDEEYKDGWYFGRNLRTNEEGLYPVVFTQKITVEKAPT

T3: Boi1 SH3 (BOI1_YEAST), P38041
T3 chain: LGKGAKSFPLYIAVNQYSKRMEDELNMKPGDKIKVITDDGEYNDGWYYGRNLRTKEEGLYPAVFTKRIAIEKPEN

T4: Yhr016c SH3 (YSC84_YEAST), P32793
T4 chain: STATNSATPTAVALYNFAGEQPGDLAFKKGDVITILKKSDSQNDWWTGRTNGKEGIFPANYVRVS

T5: Yfr024 SH3 (LSB3_YEAST), P43603
T5 chain: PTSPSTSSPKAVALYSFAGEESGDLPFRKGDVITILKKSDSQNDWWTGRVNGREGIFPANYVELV

T6: Abp1 SH3 (ABP1_YEAST), P15891
T6 chain: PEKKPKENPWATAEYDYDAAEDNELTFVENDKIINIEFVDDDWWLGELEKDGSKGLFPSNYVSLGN


Legend:
Test in all cases: SPOT array
[1] = target: T1, Rvs167 SH3 (RV167_YEAST), P39743
[2] = target: T2, Boi2 SH3 (BOI2_YEAST), P39969
[3] = target: T3, Boi1 SH3 (BOI1_YEAST), P38041
[4] = target: T4, Yhr016c SH3 (YSC84_YEAST), P32793
[5] = target: T5, Yfr024 SH3 (LSB3_YEAST), P43603
[6] = target: T6, Abp1 SH3 (ABP1_YEAST), P15891

| normalised SPOT signal, Boehringer light units (BLU); mean over the file's lines of this peptide [1] | normalised SPOT signal, Boehringer light units (BLU); mean over the file's lines of this peptide [2] | normalised SPOT signal, Boehringer light units (BLU); mean over the file's lines of this peptide [3] | normalised SPOT signal, Boehringer light units (BLU); mean over the file's lines of this peptide [4] | normalised SPOT signal, Boehringer light units (BLU); mean over the file's lines of this peptide [5] | normalised SPOT signal, Boehringer light units (BLU); mean over the file's lines of this peptide [6] | Binder |
| --- | --- | --- | --- | --- | --- | --- |
| 81.9 | 54 | 28.5 | 352 | 1430 |  | NANPFLPNKHPVTQ [YGR076C 38-51] |
| 14400 | 1310 | 3640 | 7790 | 18800 |  | MVRPAPPRRADPEG [Q0297 11-24] |
|  |  |  |  |  | 111 | NIQTIAMPLTTKP [YIL053W 16-28] |
| 79.6 | 34.7 | 54 | 273 | 892 |  | MVLPPAPPKNSDPS [YFL036W 764-777] |
| 23 | 34.4 | 124 | 239 | 122 |  | MTDPDAPSRTEHKW [YLR179C 77-90] |
| 0 | 93.6 | 37.5 | 77.6 | 84.4 |  | NIPPNSPGKLQLNT [YNR017W 123-136] |
|  |  |  |  |  | 180 | NKPGWVVYPPPPKP [YML035C 220-233] |
|  |  |  |  |  | 160 | NKSKFTDMLDPEKP [YBR033W 382-395] |
|  |  |  |  |  | 7480 | NKTFFLKPPIGRP [YBR182C 407-419] |
| 54.5 | 44.3 | 92.9 | 233 | 198 |  | NDDPVIPYKLSKDT [YHR164C 1037-1050] |
| 48.6 | 34.2 | 76.1 | 2090 | 2530 |  | NEVPTTPVRLILGQ [YOR195W 2-15] |
| 106 | 35.5 | 119 | 2580 | 6920 |  | NHIPPFPLRFSFAQ [YDR421W 532-545] |
|  |  |  |  |  | 179 | NKIKETLPREKKP [YMR255W 67-79] |
| 114 | 85.1 | 149 | 361 | 2650 |  | MVTPSKPPKKSVGF [YCL063W 147-160] |
| 20.8 | 33.6 | 125 | 109 | 127 |  | NEGPEYPTKIEKNQ [YKL101W 777-790] |
| 14300 | 200 | 558 | 8020 | 11800 |  | NAPPYVPQRSKQPD [YBR114W 165-178] |
|  |  |  |  |  | 181 | NISIDYKPSRNKP [YKL126W 329-341] |
|  |  |  |  |  | 0 | NKRDKKKKKYPRKP [YDR485C 329-342] |
|  |  |  |  |  | 108 | NITVDYKPSKNKP [YMR104C 326-338] |
| 60.2 | 54.4 | 66.8 | 54.8 | 415 |  | NEYPSKPPKVKFPA [YDL064W 66-79] |
| 163 | 88.4 | 187 | 768 | 620 |  | MVTPREPKKRTTRK [YPR052C 1-14] |
| 9.7 | 5.7 | 24.7 | 225 | 207 |  | NINPKQPPKTSGEK [YMR179W 373-386] |
| 55.3 | 25.8 | 32.9 | 257 | 109 |  | MTAPLWPNKNEKNH [YOR337W 1-14] |
|  |  |  |  |  | 270 | NKIETLDPALIRP [YDL007W 329-341] |
|  |  |  |  |  | 33.5 | NLANGLMDTMPNKP [YBL084C 527-540] |
| 32.5 | 34.4 | -0 | 109 | 56.6 |  | MTDPDAPSKTDHKW [YLR178C 93-106] |
|  |  |  |  |  | 69.9 | NKLLPPHPFADKP [YGL143C 142-154] |
| 32.9 | 48.5 | 2020 | 288 | 1870 |  | NAKPPLPIKAVTRP [YJL201W 440-453] |
